{
  "source": "patent US20220259593A1",
  "about": "“CONTROL OF MAMMALIAN GENE DOSAGE USING CRISPR” (The Regents of the University of California, priority 2019, published 2022)",
  "molecules": {"B1": {"name": "cr145 (nucleic acid)", "guide": "GTTTAAGAGCTAAGCTGGAAACAGCATAGCAAGTTTAAATAAGGCTAGTCCGTTATCAACTTGATAAAGTGGCACCGAGTCGGTGCT", "modifications": "listed as DNA, chemistry not fully specified"}, "B2": {"name": "cr270 (nucleic acid)", "guide": "B1 guide with A59T, T61C, T65A, A68G, T70A, C76T, G82A", "modifications": "listed as DNA, chemistry not fully specified"}, "B3": {"name": "cr747 (nucleic acid)", "guide": "B1 guide with A59C, T65G, T70G", "modifications": "listed as DNA, chemistry not fully specified"}, "B4": {"name": "cr368 (nucleic acid)", "guide": "B1 guide with A59C, C60A, T65A, G69T, T70G", "modifications": "listed as DNA, chemistry not fully specified"}, "B5": {"name": "cr534 (nucleic acid)", "guide": "B1 guide with C45T, G48A, T65A, G72A, C86T", "modifications": "listed as DNA, chemistry not fully specified"}, "B6": {"name": "cr653 (nucleic acid)", "guide": "B1 guide with T65A, C76A, G82T", "modifications": "listed as DNA, chemistry not fully specified"}, "B7": {"name": "cr970 (nucleic acid)", "guide": "B1 guide with A64T", "modifications": "listed as DNA, chemistry not fully specified"}, "B8": {"name": "cr251 (nucleic acid)", "guide": "B1 guide with T54G, A64T, T65A, G79C", "modifications": "listed as DNA, chemistry not fully specified"}, "B9": {"name": "cr604 (nucleic acid)", "guide": "B1 guide with T46A, T65C", "modifications": "listed as DNA, chemistry not fully specified"}, "B10": {"name": "cr346 (nucleic acid)", "guide": "B1 guide with A59C, C60A, T65A, G69T, T70G, G72T, C86A", "modifications": "listed as DNA, chemistry not fully specified"}, "B11": {"name": "cr624 (nucleic acid)", "guide": "B1 guide with A55G, T65A", "modifications": "listed as DNA, chemistry not fully specified"}, "B12": {"name": "cr973 (nucleic acid)", "guide": "B1 guide with G63A, T65A", "modifications": "listed as DNA, chemistry not fully specified"}, "B13": {"name": "cr855 (nucleic acid)", "guide": "B1 guide with T46C, A55C, T65C", "modifications": "listed as DNA, chemistry not fully specified"}, "B14": {"name": "cr258 (nucleic acid)", "guide": "B1 guide with T49A, T65A", "modifications": "listed as DNA, chemistry not fully specified"}, "B15": {"name": "cr843 (nucleic acid)", "guide": "B1 guide with A21T, T65A", "modifications": "listed as DNA, chemistry not fully specified"}, "B16": {"name": "cr021 (nucleic acid)", "guide": "B1 guide with A8C, T65A", "modifications": "listed as DNA, chemistry not fully specified"}, "B17": {"name": "cr839 (nucleic acid)", "guide": "B1 guide with T65G", "modifications": "listed as DNA, chemistry not fully specified"}, "B18": {"name": "cr226 (nucleic acid)", "guide": "B1 guide with T65A, A74C, C75A, G83T, T84G", "modifications": "listed as DNA, chemistry not fully specified"}, "B19": {"name": "cr782 (nucleic acid)", "guide": "B1 guide with G63T, T65G", "modifications": "listed as DNA, chemistry not fully specified"}, "B20": {"name": "cr238 (nucleic acid)", "guide": "B1 guide with T65A, A74T, C75T, G83A, T84A", "modifications": "listed as DNA, chemistry not fully specified"}, "B21": {"name": "cr176 (nucleic acid)", "guide": "B1 guide with A59G, T65A, T70C", "modifications": "listed as DNA, chemistry not fully specified"}, "B22": {"name": "cr478 (nucleic acid)", "guide": "B1 guide with A28G, T65A", "modifications": "listed as DNA, chemistry not fully specified"}, "B23": {"name": "cr669 (nucleic acid)", "guide": "B1 guide with T65A, G79A", "modifications": "listed as DNA, chemistry not fully specified"}, "B24": {"name": "cr023 (nucleic acid)", "guide": "B1 guide with A8G, T65A", "modifications": "listed as DNA, chemistry not fully specified"}, "B25": {"name": "cr321 (nucleic acid)", "guide": "B1 guide with A31C, T65A", "modifications": "listed as DNA, chemistry not fully specified"}, "B26": {"name": "cr563 (nucleic acid)", "guide": "B1 guide with C60G, T61C, T65A, A68G, G69C", "modifications": "listed as DNA, chemistry not fully specified"}, "B27": {"name": "cr609 (nucleic acid)", "guide": "B1 guide with A32T, G63A, T65A, G79A", "modifications": "listed as DNA, chemistry not fully specified"}, "B28": {"name": "cr906 (nucleic acid)", "guide": "B1 guide with T65G, C75G, G83C", "modifications": "listed as DNA, chemistry not fully specified"}, "B29": {"name": "cr811 (nucleic acid)", "guide": "B1 guide with C25T, T65A", "modifications": "listed as DNA, chemistry not fully specified"}, "B30": {"name": "cr578 (nucleic acid)", "guide": "B1 guide with A31G", "modifications": "listed as DNA, chemistry not fully specified"}, "B31": {"name": "cr969 (nucleic acid)", "guide": "B1 guide with A59T, T65G, T70A", "modifications": "listed as DNA, chemistry not fully specified"}, "B32": {"name": "cr353 (nucleic acid)", "guide": "B1 guide with T62A, T65A", "modifications": "listed as DNA, chemistry not fully specified"}, "B33": {"name": "cr671 (nucleic acid)", "guide": "B1 guide with T65A, A68G", "modifications": "listed as DNA, chemistry not fully specified"}, "B34": {"name": "cr556 (nucleic acid)", "guide": "B1 guide with T62C, T65A, A67G, G72A, C73T, G85A, C86T", "modifications": "listed as DNA, chemistry not fully specified"}, "B35": {"name": "cr754 (nucleic acid)", "guide": "B1 guide with G63T, T65A", "modifications": "listed as DNA, chemistry not fully specified"}, "B36": {"name": "cr926 (nucleic acid)", "guide": "B1 guide with C25A, T65A", "modifications": "listed as DNA, chemistry not fully specified"}, "B37": {"name": "cr670 (nucleic acid)", "guide": "B1 guide with T65A, T70G", "modifications": "listed as DNA, chemistry not fully specified"}, "B38": {"name": "cr340 (nucleic acid)", "guide": "B1 guide with T62G, T65A", "modifications": "listed as DNA, chemistry not fully specified"}, "B39": {"name": "cr783 (nucleic acid)", "guide": "B1 guide with A59T, T65A, T70A, C73A, G85T", "modifications": "listed as DNA, chemistry not fully specified"}, "B40": {"name": "cr918 (nucleic acid)", "guide": "B1 guide with A59T, T65A, T70A", "modifications": "listed as DNA, chemistry not fully specified"}, "B41": {"name": "cr636 (nucleic acid)", "guide": "B1 guide with A64G", "modifications": "listed as DNA, chemistry not fully specified"}},
  "system": "K562 CRISPRi cells",
  "test": "Constant region variant library pooled growth screen, K562",
  "assay_type": "cell-based, human",
  "details": "sgRNA constant region variants",
  "how_it_was_run": "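Cells were selected with puromycin for 2 days and then kept in RPMI-1640 spinner cultures, with duplicates handled separately. Targeting sequences comprised 3 sgRNAs per essential gene for 10 genes plus six non-targeting controls. Activities were normalized against pairing with the unmodified scaffold.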",
  "key": {"[1]": {"details": "relative to the original, un-modified constant region cr995 (= 1)"}, "[2]": {"details": "activity relative to the un-modified constant region cr995"}, "[3]": {"details": "activity relative to the original, un-modified constant region cr995"}},
  "note": "Changes are numbered by the printed parent chain.",
  "data": [
    {"molecule": "B1", "values": [
      {"measurement": "Mean relative activity", "setting": "[1]", "value": 0.9925}
    ]},
    {"molecule": "B2", "values": [
      {"measurement": "Mean relative activity", "setting": "[2]", "value": 0.9835}
    ]},
    {"molecule": "B3", "values": [
      {"measurement": "Mean relative activity", "setting": "[2]", "value": 0.9812}
    ]},
    {"molecule": "B4", "values": [
      {"measurement": "Mean relative activity", "setting": "[2]", "value": 0.9836}
    ]},
    {"molecule": "B5", "values": [
      {"measurement": "Mean relative activity", "setting": "[3]", "value": 1.069}
    ]},
    {"molecule": "B6", "values": [
      {"measurement": "Mean relative activity", "setting": "[1]", "value": 0.9907}
    ]},
    {"molecule": "B7", "values": [
      {"measurement": "Mean relative activity", "setting": "[2]", "value": 0.9826}
    ]},
    {"molecule": "B8", "values": [
      {"measurement": "Mean relative activity", "setting": "[2]", "value": 0.9836}
    ]},
    {"molecule": "B9", "values": [
      {"measurement": "Mean relative activity", "setting": "[1]", "value": 0.9912}
    ]},
    {"molecule": "B10", "values": [
      {"measurement": "Mean relative activity", "setting": "[2]", "value": 0.9847}
    ]},
    {"molecule": "B11", "values": [
      {"measurement": "Mean relative activity", "setting": "[2]", "value": 0.9799}
    ]},
    {"molecule": "B12", "values": [
      {"measurement": "Mean relative activity", "setting": "[1]", "value": 0.9873}
    ]},
    {"molecule": "B13", "values": [
      {"measurement": "Mean relative activity", "setting": "[2]", "value": 0.9849}
    ]},
    {"molecule": "B14", "values": [
      {"measurement": "Mean relative activity", "setting": "[1]", "value": 0.9863}
    ]},
    {"molecule": "B15", "values": [
      {"measurement": "Mean relative activity", "setting": "[2]", "value": 0.9823}
    ]},
    {"molecule": "B16", "values": [
      {"measurement": "Mean relative activity", "setting": "[2]", "value": 0.9786}
    ]},
    {"molecule": "B17", "values": [
      {"measurement": "Mean relative activity", "setting": "[1]", "value": 0.9918}
    ]},
    {"molecule": "B18", "values": [
      {"measurement": "Mean relative activity", "setting": "[2]", "value": 0.9795}
    ]},
    {"molecule": "B19", "values": [
      {"measurement": "Mean relative activity", "setting": "[2]", "value": 0.9816}
    ]},
    {"molecule": "B20", "values": [
      {"measurement": "Mean relative activity", "setting": "[2]", "value": 0.9809}
    ]},
    {"molecule": "B21", "values": [
      {"measurement": "Mean relative activity", "setting": "[3]", "value": 1.067}
    ]},
    {"molecule": "B22", "values": [
      {"measurement": "Mean relative activity", "setting": "[1]", "value": 0.9898}
    ]},
    {"molecule": "B23", "values": [
      {"measurement": "Mean relative activity", "setting": "[1]", "value": 0.9881}
    ]},
    {"molecule": "B24", "values": [
      {"measurement": "Mean relative activity", "setting": "[1]", "value": 0.9917}
    ]},
    {"molecule": "B25", "values": [
      {"measurement": "Mean relative activity", "setting": "[1]", "value": 0.9906}
    ]},
    {"molecule": "B26", "values": [
      {"measurement": "Mean relative activity", "setting": "[3]", "value": 1.068}
    ]},
    {"molecule": "B27", "values": [
      {"measurement": "Mean relative activity", "setting": "[1]", "value": 0.9895}
    ]},
    {"molecule": "B28", "values": [
      {"measurement": "Mean relative activity", "setting": "[2]", "value": 0.9817}
    ]},
    {"molecule": "B29", "values": [
      {"measurement": "Mean relative activity", "setting": "[2]", "value": 0.9803}
    ]},
    {"molecule": "B30", "values": [
      {"measurement": "Mean relative activity", "setting": "[2]", "value": 0.9852}
    ]},
    {"molecule": "B31", "values": [
      {"measurement": "Mean relative activity", "setting": "[2]", "value": 0.9815}
    ]},
    {"molecule": "B32", "values": [
      {"measurement": "Mean relative activity", "setting": "[1]", "value": 0.9885}
    ]},
    {"molecule": "B33", "values": [
      {"measurement": "Mean relative activity", "setting": "[1]", "value": 0.9864}
    ]},
    {"molecule": "B34", "values": [
      {"measurement": "Mean relative activity", "setting": "[2]", "value": 0.9785}
    ]},
    {"molecule": "B35", "values": [
      {"measurement": "Mean relative activity", "setting": "[2]", "value": 0.9804}
    ]},
    {"molecule": "B36", "values": [
      {"measurement": "Mean relative activity", "setting": "[2]", "value": 0.9811}
    ]},
    {"molecule": "B37", "values": [
      {"measurement": "Mean relative activity", "setting": "[1]", "value": 0.9903}
    ]},
    {"molecule": "B38", "values": [
      {"measurement": "Mean relative activity", "setting": "[2]", "value": 0.9853}
    ]},
    {"molecule": "B39", "values": [
      {"measurement": "Mean relative activity", "setting": "[2]", "value": 0.9779}
    ]},
    {"molecule": "B40", "values": [
      {"measurement": "Mean relative activity", "setting": "[2]", "value": 0.982}
    ]},
    {"molecule": "B41", "values": [
      {"measurement": "Mean relative activity", "setting": "[1]", "value": 0.992}
    ]}
  ]
}
